T1: Centromere B (UniProt P07199)
T1 sequence (looked up): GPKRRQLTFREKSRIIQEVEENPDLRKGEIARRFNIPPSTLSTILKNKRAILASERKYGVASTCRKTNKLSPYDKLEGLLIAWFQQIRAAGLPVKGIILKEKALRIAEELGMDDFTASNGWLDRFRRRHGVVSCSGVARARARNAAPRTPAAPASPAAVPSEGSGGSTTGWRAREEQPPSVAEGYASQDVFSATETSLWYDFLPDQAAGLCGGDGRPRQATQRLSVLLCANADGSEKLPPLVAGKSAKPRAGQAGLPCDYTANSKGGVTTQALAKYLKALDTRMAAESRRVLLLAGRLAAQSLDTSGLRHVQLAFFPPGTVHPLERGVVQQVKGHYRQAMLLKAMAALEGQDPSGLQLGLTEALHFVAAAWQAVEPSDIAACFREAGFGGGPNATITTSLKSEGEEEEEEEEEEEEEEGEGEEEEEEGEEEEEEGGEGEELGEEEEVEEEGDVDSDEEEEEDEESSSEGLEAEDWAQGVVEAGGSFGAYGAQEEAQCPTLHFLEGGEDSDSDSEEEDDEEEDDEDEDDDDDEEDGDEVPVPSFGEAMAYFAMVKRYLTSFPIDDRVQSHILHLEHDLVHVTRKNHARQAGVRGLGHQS

T2: Jo-1 (UniProt P12081)
T2 sequence (looked up): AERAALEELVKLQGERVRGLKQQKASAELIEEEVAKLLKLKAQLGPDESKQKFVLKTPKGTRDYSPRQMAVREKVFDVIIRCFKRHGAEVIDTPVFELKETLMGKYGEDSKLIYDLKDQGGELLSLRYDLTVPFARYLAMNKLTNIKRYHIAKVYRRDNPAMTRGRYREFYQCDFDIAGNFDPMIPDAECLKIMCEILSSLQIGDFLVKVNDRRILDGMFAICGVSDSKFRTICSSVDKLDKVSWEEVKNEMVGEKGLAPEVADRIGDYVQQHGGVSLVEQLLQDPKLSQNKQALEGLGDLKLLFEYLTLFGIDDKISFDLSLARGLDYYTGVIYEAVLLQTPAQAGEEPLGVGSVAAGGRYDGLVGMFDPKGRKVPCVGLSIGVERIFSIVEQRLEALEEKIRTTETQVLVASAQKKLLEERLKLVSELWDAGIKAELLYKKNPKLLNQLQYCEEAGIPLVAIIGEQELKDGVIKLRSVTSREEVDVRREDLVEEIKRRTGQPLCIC


What was measured:
Centromere B [1] = target: T1, Centromere B; assay: AtheNA, Ab 25 ug/ml
Histones [2] = assay: AtheNA, Ab 25 ug/ml
Jo-1 [3] = target: T2, Jo-1; assay: AtheNA, Ab 25 ug/ml
RNP (ribonucleoprotein) [4] = assay: AtheNA, Ab 25 ug/ml
SSA [5] = assay: AtheNA, Ab 25 ug/ml
Sm (Smith antigen) [6] = assay: AtheNA, Ab 25 ug/ml
Centromere B [7] = target: T1, Centromere B; assay: AtheNA, Ab 50 ug/ml
Histones [8] = assay: AtheNA, Ab 50 ug/ml
SSA [9] = assay: AtheNA, Ab 50 ug/ml
Sm (Smith antigen) [10] = assay: AtheNA, Ab 50 ug/ml
Centromere B [11] = target: T1, Centromere B; assay: AtheNA, Ab 12.5 ug/ml
Histones [12] = assay: AtheNA, Ab 12.5 ug/ml
Jo-1 [13] = target: T2, Jo-1; assay: AtheNA, Ab 12.5 ug/ml
RNP (ribonucleoprotein) [14] = assay: AtheNA, Ab 12.5 ug/ml
SSA [15] = assay: AtheNA, Ab 12.5 ug/ml
Scl-70 [16] = target: Scl-70 (UniProt P11387); assay: AtheNA, Ab 12.5 ug/ml
Sm (Smith antigen) [17] = assay: AtheNA, Ab 12.5 ug/ml
Centromere B [18] = target: T1, Centromere B; assay: AtheNA, Ab 6.25 ug/ml
Histones [19] = assay: AtheNA, Ab 6.25 ug/ml
Jo-1 [20] = target: T2, Jo-1; assay: AtheNA, Ab 6.25 ug/ml
RNP (ribonucleoprotein) [21] = assay: AtheNA, Ab 6.25 ug/ml
SSA [22] = assay: AtheNA, Ab 6.25 ug/ml
Scl-70 [23] = target: Scl-70 (UniProt P11387); assay: AtheNA, Ab 6.25 ug/ml
Sm (Smith antigen) [24] = assay: AtheNA, Ab 6.25 ug/ml
AtheNA, Ab 25 ug/ml = substrate: T3, SSB (UniProt P05455); assay: AtheNA, Ab 25 ug/ml
T3 sequence (looked up): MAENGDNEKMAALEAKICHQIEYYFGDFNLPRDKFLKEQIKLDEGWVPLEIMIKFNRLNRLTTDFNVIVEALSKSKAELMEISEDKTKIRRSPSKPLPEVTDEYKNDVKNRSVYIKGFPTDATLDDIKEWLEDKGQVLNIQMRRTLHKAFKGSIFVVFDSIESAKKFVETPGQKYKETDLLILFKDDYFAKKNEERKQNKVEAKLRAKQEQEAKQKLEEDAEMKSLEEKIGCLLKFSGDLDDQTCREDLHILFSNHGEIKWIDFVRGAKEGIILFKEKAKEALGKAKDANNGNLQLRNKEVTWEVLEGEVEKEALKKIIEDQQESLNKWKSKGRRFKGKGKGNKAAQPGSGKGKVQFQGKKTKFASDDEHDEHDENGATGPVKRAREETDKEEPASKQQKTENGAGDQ

AtheNA, Ab 12.5 ug/ml = substrate: T3, ; assay: AtheNA, Ab 12.5 ug/ml
AtheNA, Ab 6.25 ug/ml = substrate: T3, ; assay: AtheNA, Ab 6.25 ug/ml
Scl-70 [25] = target: Scl-70 (UniProt P11387); assay: AtheNA, Ab 25 ug/ml

Chain of Scl-70 (P11387 2-765 limits assumed): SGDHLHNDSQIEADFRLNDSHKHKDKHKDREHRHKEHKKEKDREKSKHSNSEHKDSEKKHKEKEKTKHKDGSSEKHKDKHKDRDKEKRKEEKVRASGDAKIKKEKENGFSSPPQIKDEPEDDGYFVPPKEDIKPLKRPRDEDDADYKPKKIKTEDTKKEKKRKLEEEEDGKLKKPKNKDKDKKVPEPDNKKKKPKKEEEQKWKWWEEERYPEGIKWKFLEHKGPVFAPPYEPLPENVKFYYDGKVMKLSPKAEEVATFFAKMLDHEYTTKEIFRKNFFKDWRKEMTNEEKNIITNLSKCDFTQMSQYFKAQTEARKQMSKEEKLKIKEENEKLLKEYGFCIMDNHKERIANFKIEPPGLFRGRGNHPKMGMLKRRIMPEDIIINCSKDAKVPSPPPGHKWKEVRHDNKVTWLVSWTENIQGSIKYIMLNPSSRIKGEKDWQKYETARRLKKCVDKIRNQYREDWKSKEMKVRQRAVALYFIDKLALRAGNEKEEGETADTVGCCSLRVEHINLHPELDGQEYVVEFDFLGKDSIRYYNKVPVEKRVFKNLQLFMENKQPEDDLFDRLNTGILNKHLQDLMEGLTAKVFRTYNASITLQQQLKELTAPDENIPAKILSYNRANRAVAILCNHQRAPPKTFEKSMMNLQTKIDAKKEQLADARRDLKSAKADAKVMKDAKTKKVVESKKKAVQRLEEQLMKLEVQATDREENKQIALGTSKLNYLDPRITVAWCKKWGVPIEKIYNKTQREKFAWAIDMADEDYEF

Athena reading (relative luminescence units) (Centromere B [1]) | Athena reading (relative luminescence units) (Histones [2]) | Athena reading (relative luminescence units) (Jo-1 [3]) | Athena reading (relative luminescence units) (RNP (ribonucleoprotein) [4]) | Athena reading (relative luminescence units) (SSA [5]) | Athena reading (relative luminescence units) (Sm (Smith antigen) [6]) | Athena reading (relative luminescence units) (Centromere B [11]) | Athena reading (relative luminescence units) (Histones [12]) | Athena reading (relative luminescence units) (Jo-1 [13]) | Athena reading (relative luminescence units) (RNP (ribonucleoprotein) [14]) | Athena reading (relative luminescence units) (SSA [15]) | Athena reading (relative luminescence units) (Scl-70 [16]) | Athena reading (relative luminescence units) (Sm (Smith antigen) [17]) | Athena reading (relative luminescence units) (Centromere B [18]) | Athena reading (relative luminescence units) (Histones [19]) | Athena reading (relative luminescence units) (Jo-1 [20]) | Athena reading (relative luminescence units) (RNP (ribonucleoprotein) [21]) | Athena reading (relative luminescence units) (SSA [22]) | Athena reading (relative luminescence units) (Scl-70 [23]) | Athena reading (relative luminescence units) (Sm (Smith antigen) [24]) | Binder | other results
199 | 253 | 11 | 96 | 306 | 237 | 216 | 263 | 8 | 85 | 277 | 48 | 277 | 260 | 266 | 8 | 78 | 178 | 49 | 285 | CH239_4A/293i (antibody, from a related filing, V domains shown) VH: QVQLVQSGAEVRKPGASVTVSCKASGYTFNNFYVHWVRQAPGQGLECMGWIDPSVGRINYAQKFQGRVTMTRDRSTSTVYMGLSSLRSEDTAIYYCVRDVGTEGSLLHFDHWGQGTLVIVSA VL: EIVLTQSPATLSVSPGERATLSCRATQSVRSNVAWYQQKPGQAPRLLIYSASTRATGIPARFSGSGSGTEFTLTIASMQSEDFAVYYCLQYDDWWTFGQGTKVEIK | Athena reading (relative luminescence units) (Centromere B [7]): 173; Athena reading (relative luminescence units) (Histones [8]): 228; Athena reading (relative luminescence units) (SSA [9]): 289; Athena reading (relative luminescence units) (Sm (Smith antigen) [10]): 250; Athena reading (relative luminescence units) (AtheNA, Ab 25 ug/ml): 8; Athena reading (relative luminescence units) (AtheNA, Ab 12.5 ug/ml): 6; Athena reading (relative luminescence units) (AtheNA, Ab 6.25 ug/ml): 5
14 | 20 | 5 | 6 | 15 | 11 | 8 | 13 | 6 | 5 | 14 | 3 | 7 | 6 | 9 | 2 | 3 | 15 | 1 | 4 | CH241 (antibody, from a related filing, V domains shown) VH: QVQLVQSGAAVKKPGASVRVSCKASGYTFTSSHIHWVRQAPGQGPEWMGMIDPSVGRPTTAGKFQGRVTMTRDRYTSTAYMDLSSLRSEDTAVYYCARSVETTGSLLYFDYWGQGTLITVSS VL: EIVLTQSPATLSVSPGERATLSCRASQSVRSNIAWYQQKPGQAPRLLIHGASTRATGIPGRFSGSGSGPEFTLAISSVQSEDFAVYYCQQYNDWWTFGQGTKVEIK | Athena reading (relative luminescence units) (Scl-70 [25]): 4; Athena reading (relative luminescence units) (AtheNA, Ab 25 ug/ml): 6; Athena reading (relative luminescence units) (AtheNA, Ab 12.5 ug/ml): 8; Athena reading (relative luminescence units) (AtheNA, Ab 6.25 ug/ml): 4
6 | 7 | 4 | 5 | 13 | 7 | 5 | 5 | 3 | 6 | 13 | 2 | 8 | 3 | 5 | 2 | 3 | 12 | 2 | 5 | CH235_4A (antibody, from a related filing, V domains shown) VH: QVQLVQSGAEVKKPGASVTVSCQASGYTFTNYYVHWVRQAPGQGLQLMGWIDPSWGRTNYAQNFQGRITMTRDTSTSTVYMEMRSLRSEDTAVYYCARNVATEGSLLHYDYWGQGTLVTVSA VL: EIVLTQSPATLSVSPGERATLSCRASQSVRSNLAWYQQRPGQAPRLLIYGTSTRATGVPARFSGRGSGTEFTLAISSMQSEDFAVYLCLQYNNWWTFGQGTKVEIK | Athena reading (relative luminescence units) (Scl-70 [25]): 4; Athena reading (relative luminescence units) (AtheNA, Ab 25 ug/ml): 5; Athena reading (relative luminescence units) (AtheNA, Ab 12.5 ug/ml): 5; Athena reading (relative luminescence units) (AtheNA, Ab 6.25 ug/ml): 6
24 | 27 | 11 | 11 | 16 | 22 | 15 | 18 | 7 | 8 | 14 | 4 | 13 | 8 | 9 | 5 | 6 | 12 | 3 | 9 | CH240_4A/293i (antibody, from a related filing, V domains shown) VH: QVQLVQSGTEVRKPGASVTISCKASGYTFNNFYVHWVRQAPGQGLECMGWIDPSVGRISYGQKFQGRVTMTRDRSTSTVYMGLSSLRSEDTAMYYCVRDVGTEGSLLHFDHWGQGTLVIVSA VL: EIVLTQSPATLSVSPGERATLSCRATQSVRSNLAWYQQKRGQAPRLLIYSASTRATGIPARFSGSGSGTEFTLTISSVQSEDFAVYYCLQYNNWWTFGQGTKVEIK | Athena reading (relative luminescence units) (Scl-70 [25]): 6; Athena reading (relative luminescence units) (AtheNA, Ab 25 ug/ml): 11; Athena reading (relative luminescence units) (AtheNA, Ab 12.5 ug/ml): 5; Athena reading (relative luminescence units) (AtheNA, Ab 6.25 ug/ml): 5
